Test system: Nc1ncnc2c1ncn2[C@@H]1O[C@H](COP(=O)(O)OP(=O)(O)OP(=O)(O)O)[C@@H](O)[C@H]1O
Test: kinase activity assay
Type: biochemical, Homo sapiens
Conditions: co-substrate and buffer of the KM determination not told

## DYRK1B kinase domain (78-442) (Homo sapiens)
  Km: 105 µM

Reference: article doi:10.1101/2022.12.23.521429v4
